{
  "source": "patent US20050032180A1",
  "about": "“Method for the production of (r)-and (s)-8-chloro-6-hydroxy-octanic acid alkyl esters by enzymatic reduction” (priority 2001, published 2005)",
  "molecules": {"B1": {"name": "Y-ADH: yeast alcohol dehydrogenase, commercially available (protein, UniProt P00330 2-348, looked up)", "Alcohol dehydrogenase 1": "SIPETQKGVIFYESHGKLEYKDIPVPKPKANELLINVKYSGVCHTDLHAWHGDWPLPVKLPLVGGHEGAGVVVGMGENVKGWKIGDYAGIKWLNGSCMACEYCELGNESNCPHADLSGYTHDGSFQQYATADAVQAAHIPQGTDLAQVAPILCAGITVYKALKSANLMAGHWVAISGAAGGLGSLAVQYAKAMGYRVLGIDGGEGKEELFRSIGGEVFIDFTKEKDIVGAVLKATDGGAHGVINVSVSEAAIEASTRYVRANGTTVLVGMPAGAKCCSDVFNQVVKSISIVGSYVGNRADTREALDFFARGLVKSPIKVVGLSTLPEIYEKMEKGQIVGRYVVDTSK"}, "B2": {"name": "TBADH: Thermoanaerobium brokii ADH, commercially available (protein, UniProt P14941 1-352, looked up)", "NADP-dependent isopropanol …": "MKGFAMLSIGKVGWIEKEKPAPGPFDAIVRPLAVAPCTSDIHTVFEGAIGERHNMILGHEAVGEVVEVGSEVKDFKPGDRVVVPAITPDWRTSEVQRGYHQHSGGMLAGWKFSNVKDGVFGEFFHVNDADMNLAHLPKEIPLEAAVMIPDMMTTGFHGAELADIELGATVAVLGIGPVGLMAVAGAKLRGAGRIIAVGSRPVCVDAAKYYGATDIVNYKDGPIESQIMNLTEGKGVDAAIIAGGNADIMATAVKIVKPGGTIANVNYFGEGEVLPVPRLEWGCGMAHKTIKGGLCPGGRLRMERLIDLVFYKRVDPSKLVTHVFRGFDNIEKAFMLMKDKPKDLIKPVVILA"}, "B3": {"name": "LKADH: Lactobacillus kefir ADH, commercially available (protein, UniProt Q6WVP7 1-252, looked up)", "NADP-dependent (R)-specific …": "MTDRLKGKVAIVTGGTLGIGLAIADKFVEEGAKVVITGRHADVGEKAAKSIGGTDVIRFVQHDASDEAGWTKLFDTTEEAFGPVTTVVNNAGIAVSKSVEDTTTEEWRKLLSVNLDGVFFGTRLGIQRMKNKGLGASIINMSSIEGFVGDPTLGAYNASKGAVRIMSKSAALDCALKDYDVRVNTVHPGYIKTPLVDDLEGAEEMMSQRTKTPMGHIGEPNDIAWICVYLASDESKFATGAEFVVDGGYTAQ"}},
  "test": "analytical assay of enzyme activity with compounds of the formula I as substrate",
  "assay_type": "biochemical",
  "description": "The configuration of the resulting 8-chloro-6-hydroxyoctanoic acid alkyl esters is determined by the enzyme employed. Thus, reduction of 8-chloro-6-oxooctanoic acid alkyl esters using alcohol dehydrogenase from Thermoanaeorubium brokii results in enantiopure (R)-8-chloro-6-hydroxyoctanoic acid alkyl esters. In the case of reduction using Lactobacillus brevis alcohol dehydrogenase, there is enantioselective formation of (S)-8-chloro-6-hydroxyoctanoic acid alkyl esters (ee>65%).",
  "data": [
    {"molecule": "B1", "values": [
      {"measurement": "Activity", "setting": "Standard 2-butanone, cofactor NAD(H), 100 mM TEA, pH 7.0", "value": 20, "unit": "%"}
    ]},
    {"molecule": "B2", "values": [
      {"measurement": "Activity", "setting": "Standard 2-butanone, cofactor NADP(H), 50 mM Tris, 1 mM DTT, pH 7.8, HCO2Na, FDH, 37° C.", "value": 6, "unit": "%"}
    ]},
    {"molecule": "B3", "values": [
      {"measurement": "Activity", "setting": "Standard acetophenone, cofactor NADP(H), 50 mM Kpi, 0.1 mM MgCl2, pH 7.0, iso-propanol 200 mM", "value": 10, "unit": "%"}
    ]}
  ]
}
